test: yeast display, Sf9 membrane polyspecificity reagent, FACS + sequencing; frameworks hold sequencing errors
Summary of the method: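 Nanobodies from a synthetic yeast display library (Saccharomyces cerevisiae BJ5465), induced 36–48 hours with galactose, were stained 1 hour at 4 °C with 10% biotinylated, detergent-solubilized Sf9 membrane reagent, enriched on streptavidin microbeads, then FACS-sorted. Anti-HA (expression) and streptavidin (reagent binding) fluorescence set low and high (top ~1%) gates. Polyreactivity labels come from the gate of origin. Genes were colony-PCR amplified, MiSeq 2 × 250 sequenced and filtered by CDR length.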

Sequence	polyreactivity (PSR sort gate)
QVQLVESGGGLVQAGGSLRLSCAASGMIFADYVMGWYRQAPGKERELVATINQGGGSTYYADSVKGRFTISRDNAKNTVYLQMNSLKPEDTAVYYCAATWALLYAIFESYDYWGQGTQVTVSS	low polyreactivity
QVQLEDSRGGLVQAGGSLRLSCAASGLILASYAMGWNRQAQGKERQLVSAISRSGGSTYYEDSVKVRFTISRDNAKITVYLQMKSLKPEHTAVYYFAAKYPPKTPVNTYGNSFYYWGQGTQVTVSS	low polyreactivity
QVQLVESGGGLVQAGGSLRLSCAASGRIFHYYAMGWYRQAPGKERELVAAISYSGTRTYYADSVKGRFTISRDNAKNTVYLQMNSLNPEDTAVYYCNAARSTNFDYWGQGTQVTVSS	high polyreactivity
QFQLVESGGGLFQAGGSLRLSCAASGSTFKRYAMGSYRQAPGKERELVAAISASGGSTSYADSVKGRFTISRDKAKNTVYLQMISLKPEDTAVYYCARDRFRSRFDYWGQGTQVTVSS	high polyreactivity
QVQLVESGGGLVQAGGSLRLSCAASGSTFPVYAMGWYRQAPGKERELVAAISRAGSTNYADSVKGRFTISRHNAKNTVYLEMNSLKPEDTAVYYCAARGYLWAGEWYVRRDYWGQGTQVTVSS	high polyreactivity
QVQLVESGGGLVQAGGSLRLSCAASGSIFHYNAMGWYRQAPGKERELVARISVNGGRTYYADSVKGRFTISRDNAKNTVYLQMNSLKPEDTAVYYCAVEGVWRSFFYGYDSWGQGTQVTVSS	low polyreactivity
QVQLVESGGGLVQAGGSLRLSCAASGRIYGYAMGWYRQAPGKEREFVAVISRRGSSTYYADSVKGRFTISRDNAKNTVYLQMNSLKPEDTAVYYCAAGKFYYSIGPGYDYWGQGTQVTVSS	high polyreactivity
QVQLVESGGGLVQAGGSLRLSCAASGSTSYRNAMGWYRQAPGIEREFVAAISWSGGSTYYADSVKGRFTISRDNAKNTVYLQMNSLKPEDTAVYYCATTVTQWGQGTQVTVSS	low polyreactivity
QVQLVESGGGLVQAGGSLRLICAASGSIFDYYTRGWYRQAPGKERELVASITQSGGSTYYADSVKGRFTISRDNGKNTVYLQMNSLKPEDTAVYYCAADFSIVKMDYWGQGTQVTVSS	low polyreactivity
QVQLVESVGGLVQAGGSLRLSCAASGSTFADYVMGWYRQAPGKERELVAAITSSGGSTYYADSVNGRFTISRDNAKNTVYLQMNSLKPEDTAVYYCAAQQSPSVDYWGQGTQVTVSS	low polyreactivity
QVQLVESGGGLVQAGGSLRLSCAASGSIFWDYAMGWYRQAPGKERELVAAISGSGTSTYYADSVKGRFTISRDNAKNTVYLQMNSLKPEDTAVYYCAARIWTGRGRKLGNGYDYWGQGTQVTVSS	low polyreactivity
QVQLVESGGGVVQAGGSLRLSCAASGFIFNAYAMGSYRQAPGNERELVAAINTSGGRTNYADSVKGRFTISRDNAKNTVYLQMNSLKPEDTAVYYCAARNRFGGNYWGQGTQVTVSS	high polyreactivity
QVQLVESGGGLVQAGGSLRLSCAASGYTFSSYAMGWYRQAPGKERELVAAITIGGGTNYADSVKGRFTISRDNAKNTVYLQMNSLKPEDTAVYYCNRDVALLEHPVPKKEFGYWGQGTQVTVSS	low polyreactivity
QVQLVESGGGLVQAGGSLRLSCAASGSIFVYNDMGWYRQAPGKERELVAGIDWSGDRTYADSVKGRFTISRDNAKNTVYLQMNSLKPEDTAVYYCNADEWRWDEIIPYAVDYWGQGTQVTVSS	low polyreactivity
QVQLVESGGGLVQAGGSLRLSCAASGLTFQYYAMGWYRQAPGKDRELVAAISTSGGSTYYADSVKGRFTISRDYAKNTVYLQMNSLKPEDTAVYYCAARRGSQYWGQGTQVTVSS	high polyreactivity
QVQRVESGGGLVQARGSLRLSCAASGSTFPAYAMGWYRQARGKEREWVATITYTGGSTFYADSVKGRFTISRDNAKNTVYLQMNILKPEDTEVYYCAADRGDQEDEFDYWGQGTQVTVSS	low polyreactivity
QVQHVESGGGLVQAGGSLRLSCAASGFIFPYYDMGWYRQAPGKEREFVAAITKSGGRTYYADSVKGRFTISRDNAKNPVYLQMNSLKPEDTAVYYCAAEPDTYWYTYDYWGQGTQVTVSS	low polyreactivity
QVQLVESGGGLVQAGGSLRLSCAASGITFYKYAKGWYRQAPGKERELVAAISRSGTTTYYADSVKGRFTISRDNAKNTVYLQMNSLKPEDTAVYYCNTVNWLTLNDRYYYWGQGTQVTVSS	high polyreactivity
QVQLVESGGGLVQAGGSLRLSCAASGRTFGGNAMGWYRQAPGKESELVAAISKSGGRTYYADSVKGRFTISRDNAKNTVYLQMNSLKPEDTAVYYCNKVLSVSQAGGFDYWGQGTQVTVSS	high polyreactivity
QVQLVESGGGLVQAGGSHRLSCAASGRTFPVYAMGWYRHAPGKERELVAAIRGRSVRTYYADSVKGRFTISRDNAQNSVYLQMNSLKPEDTAVYYCAAYYFNPGMDYWGQGTQVTVSS	high polyreactivity
QVQVEESGGGLVQAGGSLRLSCAASGSIFNRYAMGWYRQAPGKERELVAAISRSGSTYYADSVKGRFTISRDNAKNTVYLQMNSLKAEDTEVYYCNARGTTHHTSYDYWGQGTQVTVSS	low polyreactivity

Sequence	polyreactivity (PSR sort gate)
HFQREESGGGLVQAGGSLRLTCAASGSTFGPYVMGWYRQARGKERELVAAISDTTGNTYYADSVKGRFTLSRDNAKNTVYLQMNSLKPEDTAVYYCNVDWYWGDYDYRGQGTQVTVSS	low polyreactivity
QVQLVESGGGLVQAGGSLRLSCAASGSIFYPYAMGWYRQAPGKERELVAAISSSGGSTYYADSVKGRFTISRDTAKNTVYLQMNSLKPEDTAVYYCAARGKKHAYDYWGQGTQVTVSS	low polyreactivity
QVQLVESGGGLVQAGGSLRLSCAASGSIISNYVKGWYRQAPGKERELVAAITRRGGRTYYADSVKGRFTISRDNAKNTVYLQMNSLKPEDTAVYYCAAQTISYSYPIIRYDYWGQGTQVTVSS	low polyreactivity
QVQLVESGGGLVQAGGSLRLSCAASGSIFGGYGMGSYRQAPGKERELVAAITSGSSTYYADSVKGRFTISRDNAKNTVYLQMNSLKPEDTAVYYCAARPYPHSAYEGDYWGRGTQVTVSS	low polyreactivity
QVQLVESGGGLVQAGGSLRLSCAASGSIFNLYTMGWYRQAPGKERELVAVITGGGSTYYADSVKGRFTISRDNAKNTVYLQMNSLKPDDTAVYYCAAKGPYYKSSRTGDYWGQGTQVTVSS	low polyreactivity
QVQLVESGGGLVQAGGSLRLTCAASGSTFIFKKYVMGWYRQAPGSERELVAVISRRGDSTYYADSVKRPFTISRDNAKNTVYLQMNSLKPEDTAVYYCGAGYSTAGLARYDYWGQGTQVTVSS	high polyreactivity
QVQLVESGGGLVQAGGSLRLSCAASGGIFRINAMGWYRQAPGKERELVAAITSSVGSTYYADSVKGRFTISRDNAKNTVYLQMNSLKPEDTAVYYCAAVITRDAIVFSTEYDYWGQGTQVTVSS	low polyreactivity
QDQLVESGGGLVQAGGRLRLSCAASGSIFVRNFMGWYRQAPGKERELVPAISWNGGSTFYADSVKWRFTISRDNAKNTVYLQMNSLKPEETAVYYCATRYGRHGWFYLYDYWGQGTQVTVSS	low polyreactivity
QVQLVESGGGLVQAGGSLRLSCAASGIIFPYYAMGWYRQATGKERELVAAITRGGITYYADSVKGRFTISRDNAKNTVYLQMNSLKPEDTAVYYCAARLRGSYDYWGQGTQVTVSS	high polyreactivity
QVQLVESGGGLVQAGGSLRLSCAASGSTFLRYAMGWYRQAPGKERELVADITTSGGITYYADSVKGRFTISRDNAKNTVYLQMNSLKPEDTAVYYCAARYLPYRRIKYDYWGQGTQVTVSS	low polyreactivity
QVQLVESGGGLVQAGGSLRLSCAASGSIFDLYAMGWYRQAPGKERELVAAITSTGSTYYADSVKGRFTISRDNAKNTVYLQMNSLKPEDTAVYYCAATRGSSEYYYWGQGTQVTVSS	low polyreactivity
QVQLVESGGGLVQAGGSLRLSCAASGSIFTTYTMGWYRQAPGKERELVAAITTSSGSTYYADSVKGRFTISRDNAKNTVYLQMNSLKPEDTAVYSCNATYSAAVDYWGQGTQVTVSS	low polyreactivity
QDQLVESGVGIVQAGGRLRLSCAASGRTFGRNAMGWYIQAPGKERELVATISRSGGSTNYADSVKGRFTISRDNAKNTVYLQMNSLKPEDTAVYYCAKARPFSYDYWGLGTQVTVSS	high polyreactivity
QVQLVESGGGLFQAGGSLRLSCAASGSIFEFNAMGWYRQAPGKERELVAGITNSGSSTYYADSVKGRLTISRDHAKNTVYLQMNSLKPEDTAVFYCNARLSRWRRRPYDYWGQGTQVTVSS	high polyreactivity
QVQLVESGGGLVQAGGSLRLSCAASGSIFSIYAMGWYRQAPGKERELVATIRRDGSTYADSVKGRFTISRDNAKNTVYLQMNSLKPEDTAVYYCNARSYHQPRDYYWGQGTQVNVSS	low polyreactivity
QVQLVESGGVLVQAGCSLRLSCASSGITFKYYAMGRYSQAPGKEREFVAYISARGGGTYYADSVKGRFTISRDNAKNSVYLQMNSLKPEDYAVYYFNAGLIYHQLYSNLYDYWGQGTQVTVSS	high polyreactivity
QVQLVESGGGLVQAGGSLRLSCAASGSIFRYYAMGWYRQAPGKERELVAAISSSGGSTYYADSVKGRFTISRDNAKNTVYLQMNSLKPEDTAVYYCARDWPSYYARQYDYWGQGTQVTVSS	high polyreactivity
QVQLVESGGGLVQAGGSLRLSCAASGSTFHTYAMGWYRQAPGKERELVAGITGSGDSTFYADSVKGRFTISRDNAKNTVYLQMNSLKPEDTAVYYCAVESLRDVFEYDYWGQGTQVTVSS	low polyreactivity
QVQLVESGGGLVQAGGSLRLSCAASGRTFAGNAMGWYRQAPGKERELVAAISQGGGSTYYADSVKGRFTISRDNAKNTVYLQMNSLKPEDTAVYYCAVDFRRYPGFDYWGQGTQVTVSS	low polyreactivity
QVQLVESGGGLVQAGGSLRLSCAASGLTFHRYAMGWYRQAPGKERELVAAINYSGGRTYYADSVKGRFTISRDNAKNTVYLQMNSLKPEHTAVYYCAAPRASGYYWGQGTQVTVSS	high polyreactivity
